Target: the molecule itself
Test: SEC

B1: uncleaved Ycf1p-3xFLAG (natural protein, S. cerevisiae, UniProt P39109 1-1515, looked up)
chain: MAGNLVSWACKLCRSPEGFGPISFYGDFTQCFIDGVILNLSAIFMITFGIRDLVNLCKKKHSGIKYRRNWIIVSRMALVLLEIAFVSLASLNISKEEAENFTIVSQYASTMLSLFVALALHWIEYDRSVVANTVLLFYWLFETFGNFAKLINILIRHTYEGIWYSGQTGFILTLFQVITCASILLLEALPKKPLMPHQHIHQTLTRRKPNPYDSANIFSRITFSWMSGLMKTGYEKYLVEADLYKLPRNFSSEELSQKLEKNWENELKQKSNPSLSWAICRTFGSKMLLAAFFKAIHDVLAFTQPQLLRILIKFVTDYNSERQDDHSSLQGFENNHPQKLPIVRGFLIAFAMFLVGFTQTSVLHQYFLNVFNTGMYIKSALTALIYQKSLVLSNEASGLSSTGDIVNLMSVDVQKLQDLTQWLNLIWSGPFQIIICLYSLYKLLGNSMWVGVIILVIMMPLNSFLMRIQKKLQKSQMKYKDERTRVISEILNNIKSLKLYAWEKPYREKLEEVRNNKELKNLTKLGCYMAVTSFQFNIVPFLVSCCTFAVFVYTEDRALTTDLVFPALTLFNLLSFPLMIIPMVLNSFIEASVSIGRLFTFFTNEELQPDSVQRLPKVKNIGDVAINIGDDATFLWQRKPEYKVALKNINFQAKKGNLTCIVGKVGSGKTALLSCMLGDLFRVKGFATVHGSVAYVSQVPWIMNGTVKENILFGHRYDAEFYEKTIKACALTIDLAILMDGDKTLVGEKGISLSGGQKARLSLARAVYARADTYLLDDPLAAVDEHVARHLIEHVLGPNGLLHTKTKVLATNKVSALSIADSIALLDNGEITQQGTYDEITKDADSPLWKLLNNYGKKNNGKSNEFGDSSESSVRESSIPVEGELEQLQKLNDLDFGNSDAISLRRASDATLGSIDFGDDENIAKREHREQGKVKWNIYLEYAKACNPKSVCVFILFIVISMFLSVMGNVWLKHWSEVNSRYGSNPNAARYLAIYFALGIGSALATLIQTIVLWVFCTIHASKYLHNLMTNSVLRAPMTFFETTPIGRILNRFSNDIYKVDALLGRTFSQFFVNAVKVTFTITVICATTWQFIFIIIPLSVFYIYYQQYYLRTSRELRRLDSITRSPIYSHFQETLGGLATVRGYSQQKRFSHINQCRIDNNMSAFYPSINANRWLAYRLELIGSIIILGAATLSVFRLKQGTLTAGMVGLSLSYALQITQTLNWIVRMTVEVETNIVSVERIKEYADLKSEAPLIVEGHRPPKEWPSQGDIKFNNYSTRYRPELDLVLKHINIHIKPNEKVGIVGRTGAGKSSLTLALFRMIEASEGNIVIDNIAINEIGLYDLRHKLSIIPQDSQVFEGTVRENIDPINQYTDEAIWRALELSHLKEHVLSMSNDGLDAQLTEGGGNLSVGQRQLLCLARAMLVPSKILVLDEATAAVDVETDKVVQETIRTAFKDRTILTIAHRLNTIMDSDRIIVLDNGKVAEFDSPGQLLSDNKSLFYSLCMEAGLVNEN
B1: binds.
